# Test: yeast display, Sf9 membrane polyspecificity reagent, FACS + sequencing; frameworks hold sequencing errors
# Procedure, shortened: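 A nanobody's polyreactivity label depends on the gate it was sorted from. Yeast display cells were stained with 10% biotinylated, detergent-solubilized Sf9 membrane reagent for 1 hour at 4 °C, enriched on streptavidin microbeads and sorted by FACS. The low and high (top ~1%) gates were set on anti-HA fluorescence for expression and streptavidin fluorescence for reagent binding.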
row,Sequence,polyreactivity (PSR sort gate)
1,QVQLVESCGGLVQAGGSLRLSCAASGFNIYRNAMGWYRKAPGKERELVAAISTSVGSTHYADSVKGRFTISRDNAMNTVYLQMYSLKPEDTAVYYCAKRRSIRDEFGYWGQGTQVTVSS,high polyreactivity
2,QVQLVESCGGLVQAGGSLRLSCAASGIIFWWYTMGWYRQAPGKERELVAAISRGGNTNYADSVKGRFTISRDNAKNTVYLQMNSLKTEDTAFYYCAADRHYRFWQYDYWGQGTQVTVSS,high polyreactivity
3,QVQLVESCGGLVQAGGSLRLSCAASGRIFKYNPMGWYRQAPGQERELVASITASGGRTYYADSVKGRFTISRDIAKNTVYLQMNSLKTEDTAVYYCAAGRPFSKYGYWRQGTQVTVSS,high polyreactivity
4,QVQLVESCGGLVQAGGSLRLSCAASGRISQNAMGWYRQPPVKERELVAAITFSGGSTYYADSVKGRFTISRDNAKNTVYLQMNSLKPEDTAVYYCNGDYGDWPTAGDYWGQGTQVTVSS,low polyreactivity
5,QVQLVESCGGLVQAGGSLRLSCAASGRTFTDYVMGWYRQAPGKERELVAGIRRSGGTYYADSVKGRFTISRDNAKNTVYLQMNSLKPEDTAVYYCAAPVQTGPDPEYDYWGQGTQVTVSS,low polyreactivity
6,QVQLVESCGGLVQAGGSLRLSCAASGSTFGYYAMGWYRQAPGKETELVAAISSRGGSTYYADSVKGRFTISRDNAKNTVYLQMNSLKPEDTADYYCAARGLFFRNRYGYWGQGTQVTVSS,high polyreactivity
7,QVQLVESCGGLVQAGGSLRLSCAASGSTFRFYAMGWYRQAPGKERELVAAINGSGGSTYYADSVKGRFTISRDNAKNTVYLQMNSLKPEDTAVYYCAVLYRYGYDYWGQGTQVTVSW,low polyreactivity
8,QVQLVESCGGLVQAGGSLRLSCAASGSTFRYYPMGWYRPATGKETELVASISIGGGSTYYADSVKGRFTISRDHAKNTVYLQMNSLKPEDTAGYYCAAERTIRAARPFFRTFDYWGQGTQVTVSS,low polyreactivity
9,QVQLVESCGGLVQAGGSLRLSCAASGSTFSSYAMGWYSQAPGKERELVAAISSSGGTSTYADSVKGPFTISRDNAKNTVYLQMNSLKPEDTAVYYCNTDRFRRLYDYWGQGTQVTVSS,high polyreactivity
10,QVQLVESCGGLVQAGGSLRLSCAASGSTFYRYAMGWYRQAPGKERELVARITRTGGITNYADSVKGRFTISRDNAKNTVYLQMNSLKPEDTAVYDCAKTNIRDHYYWGQGTQVTVSS,high polyreactivity
11,QVQLVESCGGLVQAGGSLRLSCAASGYIFVYNAMGWYRQAHGKERELVAAISTTGGRTYYADSVKGRFTISRDNAKNTVYLQMNSLKPEDTAVYYCAARAYYARSLFGYWGQGTQVNVSS,high polyreactivity
12,QVQLVESCGGLVQAGGSLRLSCAPSGRTIVYKAMGWYRQAPGKERELVAAISWSGGSPYYADSVKGRFTISRDNAKNTVNLQMNSLKPDDSAVYYCATSSYYYTIWMYYWGQGTQVTVSS,high polyreactivity
13,QVQLVESCGGLVQAGGSLRLSCASSGFIFFENAMGCYIQAPCKERELVAVISSSGTSTYYADSVKGRFTISRDNAKNTVYLQMTSLKPEDTAVYYCAKDYYRSYGREDYWGQGTQVTVSS,low polyreactivity
14,QVQLVESCGGLVQAGGSLRLSCASSGLTFSRYAMGWSRQAPGKERELVAVISRSGGSTYYADSVKGRFTISRDNAKTTVYLHMNSLKPEDTAVYYCAVRAYIKMDYWGQGTQVTVSS,high polyreactivity
15,QVQLVESCGGLVQAGGSLRLSCSATGSTSVANAMGWYRQAPGKEREIVAAITGYGVSTYYADSVKGRFTISRDNAKNTVFLQMNSLKPEDTAVYYCATRGVSTSRPGYYWGQGTQVSVSS,high polyreactivity
16,QVQLVESCGGLVQAGGSLRLSCSSSGRIFRGNAMGWYRQAPGKERELVAAILTGVTTYYADSVKGRFTISRDNAKNTVYLQTNSLKPEDTAVYYCAAERPSRRSGYEYWGQGTQVTVSS,low polyreactivity

row,Sequence,polyreactivity (PSR sort gate)
1,QVQLVESCGGLVQAGGSLRLSFAASGSILVRYAMGWYRQAPGKERELVAAITSGGSTYADSVKGRFTISRDNAKNTVYLQMNSLKPEDTAVYYCAADAYGYGGDSWGQGTLVTVSS,low polyreactivity
2,QVQLVESCGGLVQAGVSLRLSCAASVFKYAMGRYRQAPGKKRELVAAISSGGITSYADSVKGRFTISRDNAKNTVYLQMNSLKPEDTAVYYCNARLRHSQYAYYYWGQGTQVTLSS,high polyreactivity
3,QVQLVESCGGLVQEGGSLRLSCAASGFTFLRYAMGWYRQAPGKERELVAAISIPGGNTYYADSVKGRFTISRDNAKNTVYLQMNSLKPEDTAVYYCAARFGGGAARHGYWGQGTQVTVSS,high polyreactivity
4,QVQLVESEGGLVQAGGSLRLSFAASGSIFPYNAMGWYRQAPGKERELVAAISISGGSTYYADSVKGRFTISRDNAKNTVYLLMNSLKPEDTAVYYCAARQSLSSAFDYCGQGTQVTVSS,low polyreactivity
5,QVQLVESGAALVQAGGSLRLSCAASGFIIYDYMGWYRQAPGKERELVAVISYSGSSTYYADSVKGRFTISRDNAKNTDYLQMNSLKPEDTAVYYCAARNVNGWDYDYWGLGTQVTVSS,low polyreactivity
6,QVQLVESGAGIVQAGGSLRLSCAASGSTFGRYAMGLYTQAPGKERELVAAISASGGSTYYADSVKGRFTISRDNAKTTVYLQMNSLTPEDTAVYYCAKDRPQTRLWYYFIDDYDYRGQGTQVTVSS,high polyreactivity
7,QVQLVESGAGLFKAGGSLRLSCAASGRIFATNAMGWYRQAPGKERELVAAISSSGGSTYYADSVKGRFTISRDNAKNTVYLQMNSLKPEDTAVYDCAAAHSYYVHYYYWGQGTQGTVSS,high polyreactivity
8,QVQLVESGAGLVKAGGSLRLSCAASGRTLTGNDMGWYRQAPGKERELVAAITARGGSTYYADSVKGRFTISRDNAKNTVYLQMNSLKPEDTAVYYGATLPVRIRRDYWGQGTQVTVSS,high polyreactivity
9,QVQLVESGAGLVLAGGSLRLSCAASGRTFRLYAMGWYRQAPGKERELVAAISYSDGRTYYADSVKGRFTISRDNAKNTVYLQMNSLKPEDTAVYYCAAETLYVAGSYYWGQGTQVTVSS,high polyreactivity
10,QVQLVESGAGLVQAAGRLRLSCAASGNTFKVNVMGWYRPAPGKERQLVASITINDRSTYYADSVKGRFTISRDNAKNTVYLQMNSLKREDTEVYYCGGDLADFYPRFNYWGQGTQVSVSS,low polyreactivity
11,QVQLVESGAGLVQAGGILLLSSAASGRIFLFYSLGWSRQEPGKERELVAAISVRGGSTYYADSVKGRITISRDNAKNTVFLQMNSLKPEDTAVYYCNAPNYRSRFDYWGQGTQVTVSS,high polyreactivity
12,QVQLVESGAGLVQAGGSLRISCAASASIFAYYVMGRYREAPGKERELVAAITRSGSPYYADSVKGRFTISRDNAKNTVYLQMNSLKPEDTAVYYCAAPTDFLFWEFDYWGQGTQVTVSS,low polyreactivity
13,QVQLVESGAGLVQAGGSLRISCAASGRIFAQYAMGWYRQAPGKERELVAAITTTGRTYYADSVKGRFTISRDNAKNTVYLQMNSTKPEETAVYYCAVGYHAPKVSTSDPRYDYWGQGTQVTVSS,low polyreactivity
14,QVQLVESGAGLVQAGGSLRLICAASGRIFDRYTMGRYRQAPGKERELVAAITQRGTSTYYADSVKGRFTLSRDTAKNTVYLQMNSLKPEDTAGYYCAATALFSGLNKRYYWGQGTQLTVSS,high polyreactivity
15,QVQLVESGAGLVQAGGSLRLICAASGSTSTTYTMGWYRQAPGKERELVAAISYSGGSTYYADSVKGRFTISRDNAKNTVYLQMNSLKPEDTAVYYCAAQSFVGWREYESWGQGTQVTVSS,high polyreactivity
16,QVQLVESGAGLVQAGGSLRLRCAASGSIFPGSALGWYRQARGKERELVAAITFGGAITYYADSVKGRFTISRDNAKNTVYLLMNSLKPEDSAVYYCAAKSPRILLDYWGQGTQVTVSS,low polyreactivity
